Measurements as given in patent US20250339531A1, “DUX4 POLYPEPTIDES AND NUCLEIC ACIDS FOR TREATING INFLAMMATORY AND AUTOIMMUNE CONDITIONS” (Fred Hutchinson Cancer Center, priority 2021, published 2025).

B1: Q92973 (protein, UniProt Q92973 1-898, looked up)
chain: MVWDRQTKMEYEWKPDEQGLQQILQLLKESQSPDTTIQRTVQQKLEQLNQYPDFNNYLIFVLTKLKSEDEPTRSLSGLILKNNVKAHFQNFPNGVTDFIKSECLNNIGDSSPLIRATVGILITTIASKGELQNWPDLLPKLCSLLDSEDYNTCEGAFGALQKICEDSAEILDSDVLDRPLNIMIPKFLQFFKHSSPKIRSHAVACVNQFIISRTQALMLHIDSFIENLFALAGDEEPEVRKNVCRALVMLLEVRMDRLLPHMHNIVEYMLQRTQDQDENVALEACEFWLTLAEQPICKDVLVRHLPKLIPVLVNGMKYSDIDIILLKGDVEEDETIPDSEQDIRPRFHRSRTVAQQHDEDGIEEEDDDDDEIDDDDTISDWNLRKCSAAALDVLANVYRDELLPHILPLLKELLFHHEWVVKESGILVLGAIAEGCMQGMIPYLPELIPHLIQCLSDKKALVRSITCWTLSRYAHWVVSQPPDTYLKPLMTELLKRILDSNKRVQEAACSAFATLEEEACTELVPYLAYILDTLVFAFSKYQHKNLLILYDAIGTLADSVGHHLNKPEYIQMLMPPLIQKWNMLKDEDKDLFPLLECLSSVATALQSGFLPYCEPVYQRCVNLVQKTLAQAMLNNAQPDQYEAPDKDFMIVALDLLSGLAEGLGGNIEQLVARSNILTLMYQCMQDKMPEVRQSSFALLGDLTKACFQHVKPCIADFMPILGTNLNPEFISVCNNATWAIGEISIQMGIEMQPYIPMVLHQLVEIINRPNTPKTLLENTAITIGRLGYVCPQEVAPMLQQFIRPWCTSLRNIRDNEEKDSAFRGICTMISVNPSGVIQDFIFFCDAVASWINPKDDLRDMFCKILHGFKNQVGDENWRRFSDQFPLPLKERLAAFYGV
modifications: full-length
B2: O95373 (protein, UniProt O95373 1-1038, looked up)
chain: MDPNTIIEALRGTMDPALREAAERQLNEAHKSLNFVSTLLQITMSEQLDLPVRQAGVIYLKNMITQYWPDRETAPGDISPYTIPEEDRHCIRENIVEAIIHSPELIRVQLTTCIHHIIKHDYPSRWTAIVDKIGFYLQSDNSACWLGILLCLYQLVKNYEYKKPEERSPLVAAMQHFLPVLKDRFIQLLSDQSDQSVLIQKQIFKIFYALVQYTLPLELINQQNLTEWIEILKTVVNRDVPNETLQVEEDDRPELPWWKCKKWALHILARLFERYGSPGNVSKEYNEFAEVFLKAFAVGVQQVLLKVLYQYKEKQYMAPRVLQQTLNYINQGVSHALTWKNLKPHIQGIIQDVIFPLMCYTDADEELWQEDPYEYIRMKFDVFEDFISPTTAAQTLLFTACSKRKEVLQKTMGFCYQILTEPNADPRKKDGALHMIGSLAEILLKKKIYKDQMEYMLQNHVFPLFSSELGYMRARACWVLHYFCEVKFKSDQNLQTALELTRRCLIDDREMPVKVEAAIALQVLISNQEKAKEYITPFIRPVMQALLHIIRETENDDLTNVIQKMICEYSEEVTPIAVEMTQHLAMTFNQVIQTGPDEEGSDDKAVTAMGILNTIDTLLSVVEDHKEITQQLEGICLQVIGTVLQQHVLEFYEEIFSLAHSLTCQQVSPQMWQLLPLVFEVFQQDGFDYFTDMMPLLHNYVTVDTDTLLSDTKYLEMIYSMCKKVLTGVAGEDAECHAAKLLEVIILQCKGRGIDQCIPLFVEAALERLTREVKTSELRTMCLQVAIAALYYNPHLLLNTLENLRFPNNVEPVTNHFITQWLNDVDCFLGLHDRKMCVLGLCALIDMEQIPQVLNQVSGQILPAFILLFNGLKRAYACHAEHENDSDDDDEAEDDDETEELGSDEDDIDEDGQEYLEILAKQAGEDGDDEDWEEDDAEETALEGYSTIIDDEDNPVDEYQIFKAIFQTIQNRNPVWYQALTHGLNEEQRKQLQDIATLADQRRAAHESKMIEKHGGYKFSAPVVPSSFNFGGPAPGMN
modifications: full-length

Tested on: proteins that co-immunoprecipitated with DUX4-CTD constructs expressed in MB135 myoblasts
Assay: LC-MS of proteins co-immunoprecipitated with DUX4-CTD (Table 1) and western validation
Assay type: binding, human
Design: key to 4. mL1dL2 + Dox + IFNG / 4. + IFNG mix / 4. longCTD + Dox + IFNG / 3. + IFNg + Dox longCTD / 3. + Dox longCTD / 3. + IFNG longCTD: peptide-spectrum matches (PSMs) per protein
Conditions: for 4. longCTD + Dox + IFNG: LC-MS counts of the listed protein co-immunoprecipitated with DUX4-CTD bait longCTD; for 4. longCTD + Dox + IFNG / 4. mL1dL2 + Dox + IFNG: experiment 4, Dox + IFNG; for 4. mL1dL2 + Dox + IFNG: LC-MS counts of the listed protein co-immunoprecipitated with DUX4-CTD bait mL1dL2; for 3. + Dox longCTD / 3. + IFNg + Dox longCTD: bait longCTD; for 3. + Dox longCTD: experiment 3, Dox only; for 3. + IFNg + Dox longCTD: experiment 3, IFNg + Dox; for SUM of PSMS: sum over all samples
How it was run: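 Two independent experiments compared uninduced, doxycycline and doxycycline+IFNG MB135iDUX4-CTD (plus MB135iDUX4mL1dL2) myoblasts. Anti-FLAG pulldowns (3 h, 4 °C) were eluted in LDS buffer for western validation or with FLAG peptide for trypsin digestion and Orbitrap LC-MS; hits needed ≥2 PSMs in both experiments, ranked by total PSMs.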

Row | Molecule | 4. longCTD + Dox + IFNG | 4. mL1dL2 + Dox + IFNG | 3. + Dox longCTD | 3. + IFNg + Dox longCTD | SUM of PSMS
1 | B1 | 3 | 6 | 1 | 4 | 14
2 | B2 | 1 | 3 | 4 | 8 | 16
